Test results published in patent publication US20110217282.

Legend:
[1] = target: T1, C-terminal histidine-tagged YgiT
T1 chain: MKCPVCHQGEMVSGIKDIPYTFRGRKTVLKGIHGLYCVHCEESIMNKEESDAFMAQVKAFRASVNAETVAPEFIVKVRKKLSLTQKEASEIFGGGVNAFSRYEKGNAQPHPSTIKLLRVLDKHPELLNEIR

MazE, P0AE72 = target: T2, MazE, P0AE72
T2 chain: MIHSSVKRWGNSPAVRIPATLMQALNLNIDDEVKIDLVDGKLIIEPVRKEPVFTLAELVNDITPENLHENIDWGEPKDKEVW

B1: MazF (protein)
chain: MVSRYVPDMGDLIWVDFDPTKGSEQAGHRPAVVLSPFMYNNKTGMCLCVPCTTQSKGYPFEVVLSGQERDGVALADQVKSIAWRARGATKKGTVAPEELQLIKAKINVLIG
Q: For B1, which “cleavage of MS2 RNA (agarose gel)” value [1] is on record?
A: when MazF was incubated with purified YgiT-H, its activity was not inhibited

Q: What about the “cleavage of MS2 RNA (agarose gel)” value (MazE, P0AE72) of the same protein?
A: its activity was completely inhibited when it was preincubated with purified MazE, the antidote of MazF
